According to paper PMC10397247:
Where two headings read alike, the source gives them in different places. Each block holds one binder with its values, some of them ahead of it.

Legend:
4H953-bH = molecular target: T1, 4H953-bH; test: two-hybrid library CCNG1;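 note: natural log of median RNA to DNA barcode read ratio; higher means stronger binding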
T1 chain: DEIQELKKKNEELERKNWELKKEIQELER

4H370-bH = molecular target: T2, 4H370-bH; test: two-hybrid library CCNG1;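 note: natural log of median RNA to DNA barcode read ratio; higher means stronger binding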
T2 chain: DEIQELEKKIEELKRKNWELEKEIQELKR

4H3782-bH = molecular target: T3, 4H3782-bH; test: two-hybrid library CCNG1;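 note: natural log of median RNA to DNA barcode read ratio; higher means stronger binding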
T3 chain: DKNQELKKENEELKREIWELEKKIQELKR

4H797-bH = molecular target: T4, 4H797-bH; test: two-hybrid library CCNG1;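 note: natural log of median RNA to DNA barcode read ratio; higher means stronger binding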
T4 chain: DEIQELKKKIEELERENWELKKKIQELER

4H687-bA = molecular target: T5, 4H687-bA; test: two-hybrid library CCNG1;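 note: natural log of median RNA to DNA barcode read ratio; higher means stronger binding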
T5 chain: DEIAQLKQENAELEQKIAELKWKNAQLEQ

4H568-bH = molecular target: T6, 4H568-bH; test: two-hybrid library CCNG1;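 note: natural log of median RNA to DNA barcode read ratio; higher means stronger binding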
T6 chain: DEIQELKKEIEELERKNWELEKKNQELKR

4H462-bH = molecular target: T7, 4H462-bH; test: two-hybrid library CCNG1
T7 chain: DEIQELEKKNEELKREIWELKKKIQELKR

4H918-bH = molecular target: T8, 4H918-bH; test: two-hybrid library CCNG1
T8 chain: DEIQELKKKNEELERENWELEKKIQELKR

4H607-bH = molecular target: T9, 4H607-bH; test: two-hybrid library CCNG1
T9 chain: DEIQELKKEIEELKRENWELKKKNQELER

4H3843-bH = molecular target: T10, 4H3843-bH; test: two-hybrid library CCNG1
T10 chain: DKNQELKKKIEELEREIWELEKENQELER

4H967-bH = molecular target: T11, 4H967-bH; test: two-hybrid library CCNG1
T11 chain: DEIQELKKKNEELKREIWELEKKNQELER

4H687-bH = molecular target: T12, 4H687-bH; test: two-hybrid library CCNG1
T12 chain: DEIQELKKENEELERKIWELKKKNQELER

4H4001-bH = molecular target: T13, 4H4001-bH; test: two-hybrid library CCNG1
T13 chain: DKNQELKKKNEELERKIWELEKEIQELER

4H883-bH = molecular target: T14, 4H883-bH; test: two-hybrid library CCNG1
T14 chain: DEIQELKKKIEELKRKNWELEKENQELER

4H72-bH = molecular target: T15, 4H72-bH; test: two-hybrid library CCNG1
T15 chain: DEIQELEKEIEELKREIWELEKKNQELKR

O9 = molecular target: T16, O9; test: two-hybrid library CC0; details: mean of both orientations
T16 chain: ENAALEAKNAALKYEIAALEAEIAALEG

O8 = molecular target: T17, O8; test: two-hybrid library CC0; details: mean of both orientations
T17 chain: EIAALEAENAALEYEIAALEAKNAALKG

O7 = molecular target: T18, O7; test: two-hybrid library CC0; details: mean of both orientations
T18 chain: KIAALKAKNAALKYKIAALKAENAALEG

P9-AA = molecular target: T19, P9-AA; test: two-hybrid library CCmax; details: mean of both orientations
T19 chain: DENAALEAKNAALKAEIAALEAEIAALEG

P2-AA = molecular target: T20, P2-AA; test: two-hybrid library CCmax
T20 chain: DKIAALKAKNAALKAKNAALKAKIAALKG

zCON9_A = molecular target: T21, zCON9_A; test: two-hybrid library CCmax
T21 chain: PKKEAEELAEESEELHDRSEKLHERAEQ

P3-AA = molecular target: T22, P3-AA; test: two-hybrid library CCmax; details: mean of both orientations
T22 chain: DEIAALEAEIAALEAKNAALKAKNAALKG

P7-AA = molecular target: T23, P7-AA; test: two-hybrid library CCmax; details: mean of both orientations
T23 chain: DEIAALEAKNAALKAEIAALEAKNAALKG

P8-AA = molecular target: T24, P8-AA; test: two-hybrid library CCmax; details: mean of both orientations
T24 chain: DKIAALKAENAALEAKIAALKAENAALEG

zCON9_B = molecular target: T25, zCON9_B; test: two-hybrid library CCmax; details: mean of both orientations
T25 chain: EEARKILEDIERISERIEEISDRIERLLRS

zCON9_D = molecular target: T26, zCON9_D; test: two-hybrid library CCmax
T26 chain: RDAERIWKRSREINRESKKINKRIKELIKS

P4-AA = molecular target: T27, P4-AA; test: two-hybrid library CCmax; details: mean of both orientations
T27 chain: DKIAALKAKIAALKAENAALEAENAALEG

P12-AA = molecular target: T28, P12-AA; test: two-hybrid library CCmax
T28 chain: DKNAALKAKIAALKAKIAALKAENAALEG

P10-AA = molecular target: T29, P10-AA; test: two-hybrid library CCmax
T29 chain: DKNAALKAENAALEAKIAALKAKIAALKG

P11-AA = molecular target: T30, P11-AA; test: two-hybrid library CCmax; details: mean of both orientations
T30 chain: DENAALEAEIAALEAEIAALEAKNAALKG

interaction score (P9-AA): 2.32 | interaction score (P2-AA; mean of both orientations): -1.38 | interaction score (zCON9_A; mean of both orientations): -1.58 | interaction score (P3-AA): -0.118 | interaction score (P12-AA; mean of both orientations): -1.23 | interaction score (P7-AA): -0.0691 | interaction score (P8-AA): -1.28 | interaction score (P10-AA): -0.869 | interaction score (zCON9_B): -0.0248 | interaction score (zCON9_D): -1.97 | interaction score (P4-AA): -1.35 | interaction score (P11-AA): 1.43
B4: P10-AA (peptide)
chain: DKNAALKAENAALEAKIAALKAKIAALKG

interaction score (P9-AA): 0.219 | interaction score (P2-AA; mean of both orientations): -1.74 | interaction score (zCON9_A): -1.73 | interaction score (P3-AA): 1.42 | interaction score (P12-AA): -1.64 | interaction score (P7-AA): -1.45 | interaction score (P8-AA): -1.95 | interaction score (zCON9_B): 0.333 | interaction score (zCON9_D; mean of both orientations): -2.06 | interaction score (P4-AA): -1.68
B5: P12-AA (peptide)
chain: DKNAALKAKIAALKAKIAALKAENAALEG

More lines, now with the values behind:

B1: 4H370-bH (peptide)
chain: DEIQELEKKIEELKRKNWELEKEIQELKR
interaction score (4H953-bH): 0.739 | interaction score (4H370-bH): 0.649 | interaction score (4H3782-bH): 0.858 | interaction score (4H797-bH): 0.396 | interaction score (4H687-bA): 0.534 | interaction score (4H568-bH): 0.618 | interaction score (4H462-bH): 0.842 | interaction score (4H918-bH): -0.0355 | interaction score (4H607-bH): -0.999 | interaction score (4H3843-bH): 0.946 | interaction score (4H967-bH): 0.239 | interaction score (4H687-bH): -1.39 | interaction score (4H4001-bH): 0.0634 | interaction score (4H883-bH): -0.56 | interaction score (4H72-bH): -0.56

B2: O7 (peptide)
chain: KIAALKAKNAALKYKIAALKAENAALEG
interaction score (O9): -2.77 | interaction score (O8): 1.47 | interaction score (O7): -2.81

B3: P2-AA (peptide)
chain: DKIAALKAKNAALKAKNAALKAKIAALKG
interaction score (P9-AA): -0.716 | interaction score (P2-AA): -0.878 | interaction score (zCON9_A; mean of both orientations): -1.98 | interaction score (P3-AA): -1.6 | interaction score (P7-AA): -1.47 | interaction score (P8-AA): -1.37 | interaction score (zCON9_B): 1.28 | interaction score (zCON9_D; mean of both orientations): -2.05 | interaction score (P4-AA): -0.357
